Assays:
[1] = target: COS7 IGF-IR (old world monkey (COS7 cells)); experiment: cell-based or functional assay
[2] = target: Rhesus IGF-IR (rhesus, UniProt I2CWY3 31-736; I2CWY3 741-1367); experiment: cell-based or functional assay
[3] = target: T1, human IGF-IR on cells (human, UniProt P08069 31-1367); experiment: cell-based or functional assay
[4] = target: T2, canine IGF-IR (canine, UniProt A0A8I3MER7 10-1344); experiment: immunoprecipitation and Western blot on cells
T2 construct: whole, on cells
Procedure: (§1) The samples prepared as described above were then analyzed by Western blot. We loaded 12 μl of each sample per lane on 4-10% gradient Novex™ gels run with 1× MES buffer (Novex™). Gels were run at 150V for 1 hour or at 200V for approximately 30 minutes. We then transferred the gel to a membrane in Novex™ transfer buffer with 10% methanol either overnight at 100 mA or for 1-1.5 hours at 250 mA. We then allowed the membrane to dry completely and blocked at room temperature with TBS (Tris-buffered saline pH 8.0) containing Superblock (Pierce Chemical Co.). We added the IGF-IR blotting antibody SC713 (Santa Cruz) to detect immunoprecipitated IGF-IR.

[5] = target: guinea pig IGF-IR (guinea pig, UniProt H0V5D0 31-736; H0V5D0 741-1367); experiment: immunoprecipitation and Western blot on cells
Procedure: as §1

[6] = target: T3, rabbit IGF-IR (rabbit, UniProt G1TLR2 31-1366); experiment: immunoprecipitation and Western blot on cells
T3 construct: whole, on cells
Procedure: as §1

[7] = target: T1, human IGF-IR on cells; experiment: inhibition of [125I]-IGF-I binding to IGF-IR-transfected NIH-3T3 cells
Procedure: We plated IGF-IR-transfected NIH-3T3 cells (5×10⁴/ml) in 100 μl of DMEM high glucose media supplemented with L-glutamine (0.29 mg/ml), 10% heat-inactivated FBS, and 500 μg/ml each of geneticin, penicillin and streptomycin in 96-well U-bottom plates. We then incubated the plates at 37° C., 5% CO₂ overnight to allow cells to attach. We then decanted the media from the plates and replaced it with 100 μl fresh media per well. For testing, we diluted antibodies in assay media (DMEM high glucose media supplemented with L-glutamine, 10% heat-inactivated FBS, 200 μg/ml BSA and 500 μg/ml each of geneticin, penicillin and streptomycin) to the desired final concentration and added 50 μl per well. All samples were performed in triplicate. We then incubated the plates at 37° C. for ten minutes. […] We incubated the plates for 10 minutes at 37° C., decanted the media by blotting gently onto paper towels and washed twice with assay media. We then lysed the cells by adding 50 μl 0.1 N NaOH, 0.1% SDS and shaking the plates for five minutes at room temperature. We then transferred the samples to a scintillation plate, added 150 μl OptiPhase Supermix and read the signal on a Wallac Micro-Beta counter.

[8] = target: T4, cynomologous IGF-IR (cynomologous); experiment: flow cytometry, biotinylated antibody on cynomologous cells, streptavidin-RPE
T4 construct: whole, on cells; also called IGF-IR of cynomologous cells
Procedure: We performed FACS analysis to determine the affinity of the antibodies of the invention for IGF-IR from other animals, particularly the old world monkeys described above. We incubated aliquots of human and monkey cells (5×10⁵) for 1 hour on ice with increasing concentrations of biotinylated anti-IGF-IR antibodies of the invention or with a biotinylated anti-keyhole limpet hemocyanin (KLH) antibody (Abgenix) as a negative control. We then incubated the samples for 30 minutes on ice with steptavidin-conjugated RPE (phycoerythrin). We measured binding by flow cytometry and analyzed the histograms of fluorescence intensity (Fl2-H) versus cell number (Counts) using CellQuest software. We calculated binding (Kd) for each antibody from graphs of mean fluorescence intensity versus antibody concentration. In most experiments, we measured binding in cultured human MCF-7 cells and either rhesus or cynomologous tissue culture cells. We controlled for depletion of the antibody by measuring binding over a range of cell concentrations.

Chain of guinea pig IGF-IR (alpha, as listed by the source limits assumed, chain 1 of 2): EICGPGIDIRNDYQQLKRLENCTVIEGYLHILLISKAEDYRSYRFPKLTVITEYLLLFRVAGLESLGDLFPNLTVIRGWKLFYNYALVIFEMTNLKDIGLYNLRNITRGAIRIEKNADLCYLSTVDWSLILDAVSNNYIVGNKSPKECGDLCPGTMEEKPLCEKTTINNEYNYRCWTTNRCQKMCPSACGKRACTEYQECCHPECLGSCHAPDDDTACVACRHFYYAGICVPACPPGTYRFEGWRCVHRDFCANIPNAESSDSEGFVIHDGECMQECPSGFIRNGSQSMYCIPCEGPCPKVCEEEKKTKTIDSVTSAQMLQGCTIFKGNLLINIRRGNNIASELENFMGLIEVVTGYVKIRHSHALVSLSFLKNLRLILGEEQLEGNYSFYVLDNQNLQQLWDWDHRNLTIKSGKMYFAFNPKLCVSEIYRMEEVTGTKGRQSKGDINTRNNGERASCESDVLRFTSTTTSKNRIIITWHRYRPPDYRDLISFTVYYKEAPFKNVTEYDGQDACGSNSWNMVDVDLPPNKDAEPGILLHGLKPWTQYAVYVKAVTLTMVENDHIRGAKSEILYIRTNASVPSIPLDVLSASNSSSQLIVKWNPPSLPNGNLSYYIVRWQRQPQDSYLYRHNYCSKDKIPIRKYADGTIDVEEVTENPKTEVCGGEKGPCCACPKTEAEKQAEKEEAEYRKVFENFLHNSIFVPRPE
Chain of guinea pig IGF-IR (beta, as listed by the source limits assumed, chain 2 of 2): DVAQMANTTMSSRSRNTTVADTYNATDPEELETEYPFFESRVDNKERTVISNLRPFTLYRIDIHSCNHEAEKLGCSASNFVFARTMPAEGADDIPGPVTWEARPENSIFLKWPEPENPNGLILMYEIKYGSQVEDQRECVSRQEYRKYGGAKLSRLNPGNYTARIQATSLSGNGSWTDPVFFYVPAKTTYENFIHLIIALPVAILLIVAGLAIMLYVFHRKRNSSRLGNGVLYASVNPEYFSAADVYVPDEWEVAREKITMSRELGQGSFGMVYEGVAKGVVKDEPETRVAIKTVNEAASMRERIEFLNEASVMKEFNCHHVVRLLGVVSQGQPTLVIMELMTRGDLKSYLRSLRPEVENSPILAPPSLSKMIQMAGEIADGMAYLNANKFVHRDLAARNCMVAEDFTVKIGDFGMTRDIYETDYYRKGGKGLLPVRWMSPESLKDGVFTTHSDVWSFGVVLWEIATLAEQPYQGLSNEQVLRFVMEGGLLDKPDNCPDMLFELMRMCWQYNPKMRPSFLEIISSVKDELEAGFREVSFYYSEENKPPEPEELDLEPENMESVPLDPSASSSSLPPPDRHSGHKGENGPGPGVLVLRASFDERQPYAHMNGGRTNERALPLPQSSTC
T2 sequence (A0A8I3MER7 entry or part of it): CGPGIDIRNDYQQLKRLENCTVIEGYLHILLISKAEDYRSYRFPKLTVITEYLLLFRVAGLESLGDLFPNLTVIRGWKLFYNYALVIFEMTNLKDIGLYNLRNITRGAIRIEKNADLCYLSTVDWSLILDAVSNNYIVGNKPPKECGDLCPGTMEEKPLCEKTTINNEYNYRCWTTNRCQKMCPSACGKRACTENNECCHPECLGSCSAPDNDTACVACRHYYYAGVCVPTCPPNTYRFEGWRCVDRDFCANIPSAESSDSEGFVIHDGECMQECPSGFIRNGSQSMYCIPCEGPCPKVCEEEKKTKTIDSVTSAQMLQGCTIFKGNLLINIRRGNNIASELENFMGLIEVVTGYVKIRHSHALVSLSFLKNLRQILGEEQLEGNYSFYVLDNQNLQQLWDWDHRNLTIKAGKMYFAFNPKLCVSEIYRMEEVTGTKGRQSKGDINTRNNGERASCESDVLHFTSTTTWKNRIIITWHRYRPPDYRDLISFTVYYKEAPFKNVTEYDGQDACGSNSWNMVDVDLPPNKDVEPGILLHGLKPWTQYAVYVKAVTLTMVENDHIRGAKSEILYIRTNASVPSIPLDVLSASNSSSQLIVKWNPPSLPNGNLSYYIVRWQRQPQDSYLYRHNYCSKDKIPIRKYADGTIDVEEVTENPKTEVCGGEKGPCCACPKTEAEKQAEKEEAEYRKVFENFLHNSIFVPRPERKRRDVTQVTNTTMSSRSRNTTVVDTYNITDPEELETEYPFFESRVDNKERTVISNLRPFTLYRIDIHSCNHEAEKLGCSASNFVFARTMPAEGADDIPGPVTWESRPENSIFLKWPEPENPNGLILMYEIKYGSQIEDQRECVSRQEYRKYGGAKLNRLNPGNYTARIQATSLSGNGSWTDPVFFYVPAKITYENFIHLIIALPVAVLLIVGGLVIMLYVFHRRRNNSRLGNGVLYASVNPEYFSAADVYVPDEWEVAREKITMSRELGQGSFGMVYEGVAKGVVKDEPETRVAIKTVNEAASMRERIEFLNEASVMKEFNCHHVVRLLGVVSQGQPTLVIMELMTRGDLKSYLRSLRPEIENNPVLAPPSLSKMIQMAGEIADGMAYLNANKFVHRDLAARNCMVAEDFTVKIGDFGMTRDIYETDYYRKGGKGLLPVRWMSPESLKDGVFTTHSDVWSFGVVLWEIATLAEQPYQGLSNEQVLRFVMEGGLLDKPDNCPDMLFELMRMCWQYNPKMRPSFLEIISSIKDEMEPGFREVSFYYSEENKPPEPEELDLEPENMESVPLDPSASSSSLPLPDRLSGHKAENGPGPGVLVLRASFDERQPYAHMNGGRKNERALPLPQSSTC
Chain of Rhesus IGF-IR (alpha, as listed by the source limits assumed, chain 1 of 2): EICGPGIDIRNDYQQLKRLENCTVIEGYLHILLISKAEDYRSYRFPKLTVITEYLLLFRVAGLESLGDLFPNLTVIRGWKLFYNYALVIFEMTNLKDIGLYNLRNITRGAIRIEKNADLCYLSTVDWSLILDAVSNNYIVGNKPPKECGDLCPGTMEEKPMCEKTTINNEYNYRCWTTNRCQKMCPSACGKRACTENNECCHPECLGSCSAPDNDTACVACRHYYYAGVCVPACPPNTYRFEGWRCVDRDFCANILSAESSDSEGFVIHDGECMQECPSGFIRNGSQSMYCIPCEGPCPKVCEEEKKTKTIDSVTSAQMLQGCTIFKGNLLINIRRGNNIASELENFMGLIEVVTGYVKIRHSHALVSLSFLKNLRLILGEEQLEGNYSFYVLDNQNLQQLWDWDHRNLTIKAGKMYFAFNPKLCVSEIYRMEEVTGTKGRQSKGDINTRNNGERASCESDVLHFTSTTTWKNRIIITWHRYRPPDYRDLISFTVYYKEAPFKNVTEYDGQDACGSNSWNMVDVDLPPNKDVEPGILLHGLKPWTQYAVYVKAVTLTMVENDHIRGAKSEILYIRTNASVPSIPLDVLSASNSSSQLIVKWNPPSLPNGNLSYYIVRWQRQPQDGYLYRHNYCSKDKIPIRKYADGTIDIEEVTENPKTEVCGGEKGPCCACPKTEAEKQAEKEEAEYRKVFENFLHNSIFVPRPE
Chain of Rhesus IGF-IR (beta, as listed by the source limits assumed, chain 2 of 2): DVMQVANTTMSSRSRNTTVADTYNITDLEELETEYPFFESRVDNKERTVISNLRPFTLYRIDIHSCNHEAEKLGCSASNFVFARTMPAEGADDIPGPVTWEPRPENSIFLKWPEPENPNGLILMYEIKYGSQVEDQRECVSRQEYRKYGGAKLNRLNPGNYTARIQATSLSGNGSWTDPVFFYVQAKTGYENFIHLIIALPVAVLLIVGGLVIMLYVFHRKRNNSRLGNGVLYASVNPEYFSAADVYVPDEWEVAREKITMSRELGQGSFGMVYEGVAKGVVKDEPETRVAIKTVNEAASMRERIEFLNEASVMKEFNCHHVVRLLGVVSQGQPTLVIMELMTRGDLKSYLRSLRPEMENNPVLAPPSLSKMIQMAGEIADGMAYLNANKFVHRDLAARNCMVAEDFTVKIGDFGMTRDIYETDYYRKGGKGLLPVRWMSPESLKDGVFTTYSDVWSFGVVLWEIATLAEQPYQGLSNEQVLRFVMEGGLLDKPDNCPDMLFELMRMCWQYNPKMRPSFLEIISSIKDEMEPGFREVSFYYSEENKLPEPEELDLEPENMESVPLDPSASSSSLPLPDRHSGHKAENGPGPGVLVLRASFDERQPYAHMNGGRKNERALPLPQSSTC

IC50 of inhibition of IGF-I-induced phosphorylation of IGF-IR (immunoprecipitation, Western blot with HRP-PY54) [1] [µg/mL]	IC50 of inhibition of IGF-I-induced phosphorylation of IGF-IR (immunoprecipitation, Western blot with HRP-PY54) [2] [µg/mL]	IC50 of inhibition of IGF-I-induced tyrosine phosphorylation of IGF-IR (ELISA, IGF-IR-transfected NIH-3T3 cells) [3] [µg/mL]	binding result [4]	binding result [5]	binding result [6]	IC50 [7] [µg/mL]	Kd [8] [µg/mL]	Binder
0.02	0.005	0.0324	no binding (tested: 1 µg/ml)	no binding (tested: 1 µg/ml)	no binding (tested: 1 µg/ml)	0.1	0.1	anti-IGF-IR antibody 4.9.2 (antibody, human IgG2, V domains shown, Human IgG2 kappa; Biotinylated in the FACS assay) VH: not shown VL: DIQMTQSPSSLSASVGDRVTITCRASQGIRSDLGWFQQKPGKAPKRLIYAASKLHRGVPSRFSGSGSGTEFTLTISRLQPEDFATYYCLQHNSYPLTFGGGTKVEIK
0.02	0.005	0.0812	no binding (tested: 1 µg/ml)	no binding (tested: 1 µg/ml)	no binding (tested: 1 µg/ml)	0.18	0.1	anti-IGF-IR antibody 2.13.2 (antibody, V domains shown, Fully human IgG2 kappa from a XenoMouse hybridoma; Biotinylated in the FACS assay) VH: EVQLLESGGGLVQPGGSLRLSCTASGFTFSSYAMNWVRQAPGKGLEWVSAISGSGGTTFYADSVKGRFTISRDNSRTTLYLQMNSLRAEDTAVYYCAKDLGWSDSYYYYYGMDVWGQGTTVTVSS VL: DIQMTQFPSSLSASVGDRVTITCRASQGIRNDLGWYQQKPGKAPKRLIYAASRLHRGVPSRFSGSGSGTEFTLTISSLQPEDFATYYCLQHNSYPCSFGQGTKLEIKR
		0.325						anti-IGF-IR antibody 2.14.3 (antibody, human IgG2, V domains shown) VH: GPGLVKPSETLSLTCTVSGGSISNYYWSWIRQPAGKGLEWIGRIYTSGSPNYNPSLKSRVTMSVDTSKNQFSLKLNSVTAADTAVYYCAVTIFGVVIIFDYWGQGTLVTVSS VL: SSLSASVGDRVTFTCRASQDIRRDLGWYQQKPGKAPKRLIYAASRLQSGVPSRFSGSGSGTEFTLTISSLQPEDFATYYCLQHNNYPRTFGQGTEVEIIR
		0.172	no binding (tested: 1 µg/ml)	no binding (tested: 1 µg/ml)	no binding (tested: 1 µg/ml)	0.45		anti-IGF-IR antibody 2.12.1 (antibody, V domains shown, Fully human IgG2 kappa from a XenoMouse hybridoma; Biotinylated in the FACS assay) VH: QAQLVESGGGLVKPGGSLRLSCAASGFTFSDYYMSWIRQAPGKGLEWVSYISSSGSTRDYADSVKGRFTISRDNAKNSLYLQMNSLRAEDTAVYYCVRDGVETTFYYYYYGMDVWGQGTTVTVSS VL: DIQMTQSPSSLSASVGDRVTFTCRASQDIRRDLGWYQQKPGKAPKRLIYAASRLQSGVPSRFSGSGSGTEFTLTISSLQPEDFATYYCLQHNNYPRTFGQGTEVEIIR

Source: patent publication US20040086503A1 (Amgen, published 2004)
